Test in all cases: SPR
Assay [1] has as its target RpfG-MBP (Lysobacter enzymogenes).
For assay [2], the target named is HtsH2C-HA-His (cytoplasmic fragment of HtsH2) (Lysobacter enzymogenes).
Assay [3] addresses HtsH3C-Myc-His (cytoplasmic fragment of HtsH3) (Lysobacter enzymogenes).

As to “HtsH1C-Flag-His (cytoplasmic fragment of HtsH1) (domain or fragment)”, the figures for the Kd in assay [1], in assay [2] and in assay [3] were 0.0668 nM, 0.0962 nM and 0.16 nM, respectively.
With “HtsH2C-HA-His (cytoplasmic fragment of HtsH2) (domain or fragment)”, the dissociation constant Kd in assay [1] turned out to be 0.3 nM; in assay [3], 0.178 nM.
“HtsH3C-Myc-His (cytoplasmic fragment of HtsH3) (domain or fragment)” returned a dissociation constant (Kd) in assay [1] of 0.168 nM.

The record behind these values is publication doi:10.1101/2020.07.13.201541.
